The values that follow come from publication PMC10278067.

Among the targets are LD3_v3 (D138A); LD3_v1 (L133A); LD3_v4 (F140A); LD3_v5 (K144A); LD3_v2 (I136A).
Holding throughout (assay): SPR; Biacore 8K; original LD3 and mutants immobilised on CM5 chip by amine coupling (500-1000 RU); Bcl-2 injected as analyte in serial 2-fold dilutions (from 2000 or 500 nM); HBS-EP+ pH 7.4, 150 mM NaCl; 1:1 Langmuir fit; three independent experiments
(In general: Surface plasmon resonance follows binding to a sensor surface in real time, without labels.)

LD3_v1 (L133A), sequence (P02649 other isoform, or with tags, fused parts or gaps L133A): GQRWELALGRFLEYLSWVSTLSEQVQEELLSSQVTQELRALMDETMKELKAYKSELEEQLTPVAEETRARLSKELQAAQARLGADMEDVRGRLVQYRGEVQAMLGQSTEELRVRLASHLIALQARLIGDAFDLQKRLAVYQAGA
LD3_v4 (F140A), sequence (P02649 other isoform, or with tags, fused parts or gaps F140A): as the sequence (P02649 other isoform, or with tags, fused parts or gaps L133A) above, with A124L, F131A counted along it
LD3_v3 (D138A), sequence (P02649 other isoform, or with tags, fused parts or gaps D138A): as the sequence (P02649 other isoform, or with tags, fused parts or gaps L133A) above, with A124L, D129A counted along it
LD3_v2 (I136A), sequence (P02649 other isoform, or with tags, fused parts or gaps I136A): as the sequence (P02649 other isoform, or with tags, fused parts or gaps L133A) above, with A124L, I127A counted along it
LD3_v5 (K144A), sequence (P02649 other isoform, or with tags, fused parts or gaps K144A): as the sequence (P02649 other isoform, or with tags, fused parts or gaps L133A) above, with A124L, K135A counted along it

As to “B-cell lymphoma 2 (Bcl-2) protein (from UniProt P10415 1-239) (natural protein)”, the Kd with LD3_v3 (D138A) came out at 358 nM; with LD3_v1 (L133A), 65.8 nM; with LD3_v4 (F140A), 27.3 nM; with LD3_v5 (K144A) it was 0.46 nM; in the test with LD3_v2 (I136A), 0.74 nM. Further, the koff with LD3_v3 (D138A) turned out to be 0.0184 s⁻¹; in the test with LD3_v1 (L133A), 0.00263 s⁻¹; with LD3_v4 (F140A), 0.00197 s⁻¹; in the test with LD3_v5 (K144A), 6.6e-05 s⁻¹; in the test with LD3_v2 (I136A) it was 8.9e-05 s⁻¹. Further, the kon with LD3_v3 (D138A) is 154000 M⁻¹ s⁻¹; in the test with LD3_v1 (L133A), 40800 M⁻¹ s⁻¹; in the test with LD3_v4 (F140A), 240000 M⁻¹ s⁻¹; in the test with LD3_v5 (K144A), 455000 M⁻¹ s⁻¹; with LD3_v2 (I136A), 360000 M⁻¹ s⁻¹.

In general, Kd refers to the concentration at which binding is half-saturated. High values mean weaker binding, low ones tighter binding. Broadly, the koff is the first-order rate constant of dissociation. A high value points to a short-lived complex. Broadly, the kon is the rate constant with which the complex forms. Higher therefore signals faster complex formation.
